Laboratory results as given in publication PMC3753931.

T1: GST-Xl-dsRBD (XlrbpA dsRBD2) (Xenopus laevis) (UniProt Q91836)
T1 sequence: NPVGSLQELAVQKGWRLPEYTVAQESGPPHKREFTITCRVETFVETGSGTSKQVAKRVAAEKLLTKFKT

T2: GST-Xl-dsRBD (XlrbpA dsRBD2) (Xenopus laevis, UniProt Q91836 112-180)
T2 sequence: T1 sequence

B1: 21blunt (dsRNA)
RNA 1: AAGUCACAUUGCCCAAGUCUC
RNA 2: GAGACUUGGGCAAUGUGACUU

Experiments:
[1] = target: T1, GST-Xl-dsRBD (XlrbpA dsRBD2) (Xenopus laevis); experiment: EMSA; details: scale: fold higher affinity than P1
[2] = target: T2, GST-Xl-dsRBD (XlrbpA dsRBD2); experiment: EMSA

Row | Molecule | binding signal [1] | binding result [2]
1 | 30-bp dsRNA | 30 | –
2 | 50-bp dsRNA | 30 | –
3 | 70-bp dsRNA | 30 | –
4 | 130-bp dsRNA | 30 | –
5 | B1 | – | binds
